Biological target: PfRH5FL (full-length PfRH5 protein comprising amino acids E26–Q526) (P. falciparum (3D7 clone), UniProt Q8IFM5 26-526, T40A | T216A | T286A | T299A)
Assay: SPR
Details: both partners purified

B1: PfP113Nt (domain or fragment)
chain: YVHNDVIKFGEENSLKCSQGNLYVLHCEVQCLNGNNEIIHKRCNDDIEKKCNGNNKCIYFFEYELRKKTQSFRNKNSIEISECVESEQNEVKTSTTCLLSNSFILDEAFIQYFFFIKNKNEEPVICKDGNINIKSALLHSPFCEIKLKDISEYIRKKCDNNKECLIDPLDVQKNLLNEEDPCYINNSYVSVNVVCNK
binding result: binds

Source: article PMC6602525 (Cell, 2019)
